Data from article PMC12990809.

What was measured:
Experiment in all cases: pulldown
Conditions in all cases: 20 nM protein, 1.5 uM RNA pool; 20 mM HEPES pH 7.8, 70 mM KCl, 10 mM NaCl, 10% glycerol, 2 mM DTT, 0.1 ug/uL BSA; 30 min, 4 C
[1] = biological target: T1, SRSF3 (Tetraodon nigroviridis) (UniProt H3C295)
T1 sequence: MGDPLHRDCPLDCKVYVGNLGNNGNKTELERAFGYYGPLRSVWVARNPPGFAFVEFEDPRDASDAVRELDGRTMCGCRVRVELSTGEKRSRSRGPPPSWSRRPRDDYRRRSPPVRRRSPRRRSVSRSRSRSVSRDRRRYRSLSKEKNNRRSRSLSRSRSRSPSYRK

[2] = biological target: T2, cwf2 (Schizosaccharomyces pombe) (UniProt P87126)
T2 sequence: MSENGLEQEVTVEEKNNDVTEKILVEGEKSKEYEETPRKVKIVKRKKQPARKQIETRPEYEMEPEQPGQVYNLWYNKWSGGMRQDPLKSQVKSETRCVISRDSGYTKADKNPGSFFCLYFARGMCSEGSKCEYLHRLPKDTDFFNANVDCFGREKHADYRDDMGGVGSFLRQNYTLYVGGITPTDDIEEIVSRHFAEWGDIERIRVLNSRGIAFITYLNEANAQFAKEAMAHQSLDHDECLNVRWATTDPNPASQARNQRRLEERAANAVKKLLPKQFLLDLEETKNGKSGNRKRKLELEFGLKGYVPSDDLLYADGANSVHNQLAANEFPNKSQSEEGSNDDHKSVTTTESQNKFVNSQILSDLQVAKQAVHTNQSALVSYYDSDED

[3] = biological target: T3, CBG05471 (Caenorhabditis briggsae) (UniProt A8WZY6)
T3 sequence: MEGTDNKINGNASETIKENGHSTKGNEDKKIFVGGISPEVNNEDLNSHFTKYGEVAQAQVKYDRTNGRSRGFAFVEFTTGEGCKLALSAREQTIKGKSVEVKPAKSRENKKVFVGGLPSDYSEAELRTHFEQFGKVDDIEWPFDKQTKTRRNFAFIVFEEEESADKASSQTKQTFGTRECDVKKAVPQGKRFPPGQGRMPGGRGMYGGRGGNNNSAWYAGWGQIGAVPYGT

[4] = biological target: T4, Smp_036270 E366G (Schistosoma mansoni) (UniProt A0A3Q0KEI3)
T4 sequence: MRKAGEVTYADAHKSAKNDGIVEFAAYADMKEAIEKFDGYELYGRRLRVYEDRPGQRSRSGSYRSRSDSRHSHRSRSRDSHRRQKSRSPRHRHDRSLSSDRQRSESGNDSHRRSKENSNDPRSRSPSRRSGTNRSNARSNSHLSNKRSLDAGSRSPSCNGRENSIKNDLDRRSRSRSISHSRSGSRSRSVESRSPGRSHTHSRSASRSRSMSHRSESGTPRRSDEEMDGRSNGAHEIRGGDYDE

[5] = biological target: T5, Y57G11C.36 (Caenorhabditis elegans) (UniProt Q8I4C4)
T5 sequence: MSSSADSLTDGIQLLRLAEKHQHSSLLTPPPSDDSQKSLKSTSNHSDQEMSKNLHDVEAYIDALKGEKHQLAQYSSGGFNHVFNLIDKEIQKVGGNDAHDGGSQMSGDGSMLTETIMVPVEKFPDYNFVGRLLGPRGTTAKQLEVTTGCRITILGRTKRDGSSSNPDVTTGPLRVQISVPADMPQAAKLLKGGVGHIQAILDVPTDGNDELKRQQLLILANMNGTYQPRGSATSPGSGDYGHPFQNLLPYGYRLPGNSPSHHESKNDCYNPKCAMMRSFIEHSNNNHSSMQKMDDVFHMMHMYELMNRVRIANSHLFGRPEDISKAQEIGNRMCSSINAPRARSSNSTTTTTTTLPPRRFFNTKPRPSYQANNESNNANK

[6] = biological target: T6, nop12 (Schizosaccharomyces pombe) (UniProt O13741)
T6 sequence: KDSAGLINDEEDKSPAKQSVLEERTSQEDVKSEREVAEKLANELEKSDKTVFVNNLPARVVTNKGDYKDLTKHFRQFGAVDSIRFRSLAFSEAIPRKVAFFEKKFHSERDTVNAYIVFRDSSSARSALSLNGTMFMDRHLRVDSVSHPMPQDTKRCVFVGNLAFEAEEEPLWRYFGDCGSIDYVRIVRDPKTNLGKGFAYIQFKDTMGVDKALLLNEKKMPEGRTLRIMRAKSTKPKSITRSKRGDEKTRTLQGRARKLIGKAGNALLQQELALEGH

[7] = tested on: T7, PK27602.1 (Cannabis sativa)
T7 sequence: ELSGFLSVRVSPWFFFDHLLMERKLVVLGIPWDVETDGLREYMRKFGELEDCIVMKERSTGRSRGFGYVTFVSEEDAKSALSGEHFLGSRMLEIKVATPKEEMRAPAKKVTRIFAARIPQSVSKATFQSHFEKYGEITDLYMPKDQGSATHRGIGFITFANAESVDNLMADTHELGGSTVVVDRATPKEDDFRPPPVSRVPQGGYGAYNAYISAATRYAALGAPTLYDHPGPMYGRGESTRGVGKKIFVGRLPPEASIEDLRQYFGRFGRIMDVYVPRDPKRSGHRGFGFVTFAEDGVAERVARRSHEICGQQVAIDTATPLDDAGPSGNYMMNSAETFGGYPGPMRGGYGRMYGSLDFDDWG

[8] = biological target: T8, CBG03563 (Caenorhabditis briggsae) (UniProt A8WVC5)
T8 sequence: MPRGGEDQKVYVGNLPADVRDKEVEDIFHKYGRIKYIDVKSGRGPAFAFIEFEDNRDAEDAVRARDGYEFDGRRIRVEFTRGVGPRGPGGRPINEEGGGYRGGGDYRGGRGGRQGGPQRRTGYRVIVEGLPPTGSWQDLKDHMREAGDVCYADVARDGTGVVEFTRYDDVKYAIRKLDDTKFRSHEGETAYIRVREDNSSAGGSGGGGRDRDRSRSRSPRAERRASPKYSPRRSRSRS

AACAACG [RNAcompete motif RNCMPT00419]
binding signal (z-score (mean of top ten 7-mers)) [1]: 7.35

AANUUG [RNAcompete motif RNCMPT00432]
binding signal (z-score (mean of top ten 7-mers)) [2]: 17.4

AGUAA [RNAcompete motif RNCMPT00422]
binding signal (z-score (mean of top ten 7-mers)) [3]: 9.16

CGGAGG [RNAcompete motif RNCMPT00417]
binding signal (z-score (mean of top ten 7-mers)) [4]: 13.5

CUACUAG [RNAcompete motif RNCMPT00423]
binding signal (z-score (mean of top ten 7-mers)) [5]: 15.3

GAACG [RNAcompete motif RNCMPT00412]
binding signal (z-score (mean of top ten 7-mers)) [6]: 25.9

GAGUGA [RNAcompete motif RNCMPT00431]
binding signal (z-score (mean of top ten 7-mers)) [7]: 12.8

GGACGANG [RNAcompete motif RNCMPT00433]
binding signal (z-score (mean of top ten 7-mers)) [8]: 7.68
